# According to publication PMC3714855:
# Where “and” joins values, the source holds several entries; their conditions need not be identical. Equal entries are not always repeated.
# Assays:
# [1] = molecular target: GluA2(R)(L811W) (rat); experiment: native gel or EMSA
# [2] = molecular target: HA-GluA2(R)-ΔM4 (rat); experiment: native gel or EMSA
# [3] = molecular target: wild-type GluA2(R), untagged (rat); experiment: native gel or EMSA
# [4] = molecular target: GluA2(R)(E813W) (rat); experiment: native gel or EMSA
# [5] = molecular target: GluA2(Q)(A806W) with a C-terminal GFP tag (rat); experiment: SEC
# [6] = molecular target: GluA2(R)(V795W) (rat); experiment: native gel or EMSA
# [7] = molecular target: wild-type GluA2(Q) with a C-terminal GFP tag (rat); experiment: SEC
# [8] = molecular target: GluA2(Q)(V795W) with a C-terminal GFP tag (rat); experiment: SEC
# [9] = molecular target: GluA2(Q)(E813W) with a C-terminal GFP tag (rat); experiment: SEC
# [10] = molecular target: wild-type GluA1 with a C-terminal GFP tag (rat); experiment: SEC
# [11] = molecular target: GluA1(L795W) with a C-terminal GFP tag (rat); experiment: SEC
# [12] = molecular target: GluA2(Q)(L811W) with a C-terminal GFP tag (rat); experiment: SEC
# [13] = molecular target: GluA2(R)(G802W) (rat); experiment: native gel or EMSA
# [14] = molecular target: HA-tagged wild-type GluA2(R) (rat); experiment: native gel or EMSA
# [15] = molecular target: GluA2(Q)(G802W) with a C-terminal GFP tag (rat); experiment: SEC
# [16] = molecular target: GluA2(R)-ΔM4, untagged (rat); experiment: native gel or EMSA
# [17] = molecular target: GluA1(E809W) with a C-terminal GFP tag (rat); experiment: SEC
substance,measurement,setting,value
GluA2(R)(L811W) (receptor),stoichiometry N,[1],4 and 2
HA-GluA2(R)-ΔM4 (domain or fragment),stoichiometry N,[2],2
"wild-type GluA2(R), untagged (receptor)",stoichiometry N,[3],4 and 2
GluA2(R)(E813W) (receptor),stoichiometry N,[4],2
GluA2(Q)(A806W) with a C-terminal GFP tag (receptor),stoichiometry N,[5],2
GluA2(R)(V795W) (receptor),stoichiometry N,[6],2
wild-type GluA2(Q) with a C-terminal GFP tag (receptor),stoichiometry N,[7],4
GluA2(Q)(V795W) with a C-terminal GFP tag (receptor),stoichiometry N,[8],2
GluA2(Q)(E813W) with a C-terminal GFP tag (receptor),stoichiometry N,[9],2
wild-type GluA1 with a C-terminal GFP tag (receptor),stoichiometry N,[10],4
GluA1(L795W) with a C-terminal GFP tag (receptor),stoichiometry N,[11],2
GluA2(Q)(L811W) with a C-terminal GFP tag (receptor),stoichiometry N,[12],4
GluA2(R)(G802W) (receptor),stoichiometry N,[13],2
HA-tagged wild-type GluA2(R) (receptor),stoichiometry N,[14],4 and 2
GluA2(Q)(G802W) with a C-terminal GFP tag (receptor),stoichiometry N,[15],2
"GluA2(R)-ΔM4, untagged (domain or fragment)",stoichiometry N,[16],2
GluA1(E809W) with a C-terminal GFP tag (receptor),stoichiometry N,[17],2
